Test results as given in patent publication US20180147232.

Flag-TSC2, P49815, sequence (P49815 whole entry): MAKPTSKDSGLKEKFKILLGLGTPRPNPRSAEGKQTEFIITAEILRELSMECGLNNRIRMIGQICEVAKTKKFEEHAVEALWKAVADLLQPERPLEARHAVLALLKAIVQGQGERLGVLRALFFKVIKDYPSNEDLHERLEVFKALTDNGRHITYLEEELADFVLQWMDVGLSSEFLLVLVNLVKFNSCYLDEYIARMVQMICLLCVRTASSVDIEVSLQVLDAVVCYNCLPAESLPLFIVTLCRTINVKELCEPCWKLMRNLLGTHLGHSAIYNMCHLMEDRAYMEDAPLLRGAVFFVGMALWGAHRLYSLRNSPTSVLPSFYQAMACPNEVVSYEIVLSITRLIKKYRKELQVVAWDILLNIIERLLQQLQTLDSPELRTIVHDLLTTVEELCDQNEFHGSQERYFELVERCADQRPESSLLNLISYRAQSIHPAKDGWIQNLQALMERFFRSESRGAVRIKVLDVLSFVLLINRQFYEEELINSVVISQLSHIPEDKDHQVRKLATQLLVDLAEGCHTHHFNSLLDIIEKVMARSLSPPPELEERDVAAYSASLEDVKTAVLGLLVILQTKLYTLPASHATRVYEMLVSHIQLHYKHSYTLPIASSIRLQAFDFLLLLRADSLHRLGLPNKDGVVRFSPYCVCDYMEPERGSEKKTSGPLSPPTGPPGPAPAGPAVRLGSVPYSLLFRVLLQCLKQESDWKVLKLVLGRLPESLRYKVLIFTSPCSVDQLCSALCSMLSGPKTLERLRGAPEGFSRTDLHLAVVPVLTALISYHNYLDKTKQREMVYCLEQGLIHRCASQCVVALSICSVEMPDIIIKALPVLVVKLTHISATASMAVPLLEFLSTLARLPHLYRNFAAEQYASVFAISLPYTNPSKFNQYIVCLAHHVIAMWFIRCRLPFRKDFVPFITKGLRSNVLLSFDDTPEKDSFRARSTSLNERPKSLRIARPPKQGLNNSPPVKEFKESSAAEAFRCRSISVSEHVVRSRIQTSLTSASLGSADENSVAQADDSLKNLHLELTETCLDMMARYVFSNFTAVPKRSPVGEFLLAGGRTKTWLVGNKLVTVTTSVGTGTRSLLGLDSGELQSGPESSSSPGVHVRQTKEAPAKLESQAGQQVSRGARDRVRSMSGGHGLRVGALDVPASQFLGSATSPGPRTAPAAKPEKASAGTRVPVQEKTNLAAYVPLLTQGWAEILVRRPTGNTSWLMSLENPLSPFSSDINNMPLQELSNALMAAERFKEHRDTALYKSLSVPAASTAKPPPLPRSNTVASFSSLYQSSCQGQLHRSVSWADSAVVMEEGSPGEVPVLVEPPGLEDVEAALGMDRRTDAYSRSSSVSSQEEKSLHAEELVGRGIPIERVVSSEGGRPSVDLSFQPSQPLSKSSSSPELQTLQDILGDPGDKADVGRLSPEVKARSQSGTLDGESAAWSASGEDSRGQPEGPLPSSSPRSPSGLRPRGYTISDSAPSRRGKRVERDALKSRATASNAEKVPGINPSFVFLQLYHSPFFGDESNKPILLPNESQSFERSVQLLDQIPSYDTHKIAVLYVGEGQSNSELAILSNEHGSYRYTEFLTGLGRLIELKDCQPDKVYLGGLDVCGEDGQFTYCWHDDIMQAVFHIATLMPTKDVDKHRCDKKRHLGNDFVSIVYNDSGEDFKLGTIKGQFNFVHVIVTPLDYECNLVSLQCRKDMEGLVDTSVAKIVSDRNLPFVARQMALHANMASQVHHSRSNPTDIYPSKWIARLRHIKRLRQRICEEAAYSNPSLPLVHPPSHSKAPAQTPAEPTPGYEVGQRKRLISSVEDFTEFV
Flag-TSC2 6A, P49815, sequence (P49815 other isoform, or with tags, fused parts or gaps): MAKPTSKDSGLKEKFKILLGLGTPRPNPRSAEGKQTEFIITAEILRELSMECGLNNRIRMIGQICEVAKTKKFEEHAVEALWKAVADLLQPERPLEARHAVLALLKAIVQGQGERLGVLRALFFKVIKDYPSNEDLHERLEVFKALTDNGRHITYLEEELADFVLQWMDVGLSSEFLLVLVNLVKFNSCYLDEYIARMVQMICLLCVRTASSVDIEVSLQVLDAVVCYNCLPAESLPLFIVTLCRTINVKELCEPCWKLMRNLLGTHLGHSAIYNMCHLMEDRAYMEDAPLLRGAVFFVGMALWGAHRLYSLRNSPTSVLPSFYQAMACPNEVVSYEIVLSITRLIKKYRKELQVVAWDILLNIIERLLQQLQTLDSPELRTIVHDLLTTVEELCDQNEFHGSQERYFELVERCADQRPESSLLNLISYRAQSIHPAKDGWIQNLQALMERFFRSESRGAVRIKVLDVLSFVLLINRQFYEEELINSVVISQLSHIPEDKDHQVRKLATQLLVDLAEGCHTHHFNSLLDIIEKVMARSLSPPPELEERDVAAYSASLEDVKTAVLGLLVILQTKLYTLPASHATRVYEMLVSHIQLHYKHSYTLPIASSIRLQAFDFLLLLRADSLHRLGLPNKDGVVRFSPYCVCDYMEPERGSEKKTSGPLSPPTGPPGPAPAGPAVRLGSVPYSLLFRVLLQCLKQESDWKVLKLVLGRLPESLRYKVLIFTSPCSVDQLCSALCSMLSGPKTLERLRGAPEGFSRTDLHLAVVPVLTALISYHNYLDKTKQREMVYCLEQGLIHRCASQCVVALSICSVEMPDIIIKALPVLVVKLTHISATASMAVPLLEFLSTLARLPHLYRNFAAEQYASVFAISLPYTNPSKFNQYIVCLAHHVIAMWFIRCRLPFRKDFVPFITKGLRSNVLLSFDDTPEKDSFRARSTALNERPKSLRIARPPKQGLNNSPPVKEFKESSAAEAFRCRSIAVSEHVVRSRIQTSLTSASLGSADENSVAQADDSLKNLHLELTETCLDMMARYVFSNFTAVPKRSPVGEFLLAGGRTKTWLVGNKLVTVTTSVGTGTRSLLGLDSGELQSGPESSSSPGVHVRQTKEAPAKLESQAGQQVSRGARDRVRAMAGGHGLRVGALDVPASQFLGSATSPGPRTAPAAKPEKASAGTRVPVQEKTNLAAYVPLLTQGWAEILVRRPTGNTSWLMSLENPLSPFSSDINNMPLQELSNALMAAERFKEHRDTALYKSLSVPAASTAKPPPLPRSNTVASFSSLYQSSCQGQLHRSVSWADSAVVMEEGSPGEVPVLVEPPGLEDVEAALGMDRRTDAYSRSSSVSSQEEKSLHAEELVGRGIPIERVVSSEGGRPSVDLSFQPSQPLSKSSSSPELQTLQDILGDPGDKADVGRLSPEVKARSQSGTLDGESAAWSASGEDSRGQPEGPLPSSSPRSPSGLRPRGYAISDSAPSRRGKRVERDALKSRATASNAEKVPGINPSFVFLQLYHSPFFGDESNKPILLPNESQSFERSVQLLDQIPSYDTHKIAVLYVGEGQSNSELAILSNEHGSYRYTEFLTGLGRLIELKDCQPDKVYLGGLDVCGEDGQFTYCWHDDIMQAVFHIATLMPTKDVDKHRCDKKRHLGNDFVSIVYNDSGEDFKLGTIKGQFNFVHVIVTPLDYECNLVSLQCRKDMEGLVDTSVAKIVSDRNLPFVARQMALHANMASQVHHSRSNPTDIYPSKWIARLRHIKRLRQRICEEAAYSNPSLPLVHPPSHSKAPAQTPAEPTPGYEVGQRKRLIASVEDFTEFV

B1: recombinant His-SGK1 (Δ60) (protein)
chain: ISQPQEPELMNANPSPPPSPSQQINLGPSSNPHAKPSDFHFLKVIGKGSFGKVLLARHKAEEVFYAVKVLQKKAILKKKEEKHIMSERNVLLKNVKHPFLVGLHFSFQTADKLYFVLDYINGGELFYHLQRERCFLEPRARFYAAEIASALGYLHSLNIVYRDLKPENILLDSQGHIVLTDFGLCKENIEHNSTTSTFCGTPEYLAPEVLHKQPYDRTVDWWCLGAVLYEMLYGLPPFYSRNTAEMYDNILNKPLQLKPNITNSARHLLEGLLQKDRTKRLGAKDDFMEIKSHVFFSLINWDDLINKKITPPFNPNVSGPNDLRHFDPEFTEEPVPNSIGKSPDSVLVTASVKEAAEAFLGFDYAPPTDSFL
Q: With B1 as the protein, how does the “phosphorylation of TSC2, in vitro kinase assay” value (Flag-TSC2 6A, P49815) read?
A: Mutation of these six sites into the non-phosphorylatable amino acid alanine (TSC2 6A) completely abrogated the ability of SGK1 to phosphorylate TSC2 in vitro

Q: What about the “phosphorylation of S939, S981, T993, S1130, S1132, T1462 and S1798 of TSC2 by mass spectrometry after the in vitro kinase assay” value (Flag-TSC2, P49815) of the same protein?
A: we found increased phosphorylation in all these sites, except at T993

Q: What about the “phosphorylation of the RXRXX(S/T) sites of TSC2, in vitro kinase assay” value (Flag-TSC2, P49815) of the same protein?
A: The addition of recombinant SGK1 kinase increased the phosphorylation of the RXRXX(S/T) (SEQ ID NO: 1) sites of TSC2 independent of the AKT activity
